Measured values published in patent US20180155451A1 (published 2018).

T1: FcγRIIa H (FcγRIIa, type H allotype, His at position 131), extracellular domain with C-terminal His tag (human, UniProt P12318 34-217)
T1 construct: extracellular domain; Soluble receptor expressed in FreeStyle293 cells; analyte in Biacore; also called FcgRIIa H; 2aH; not shown: C-terminal His tag
T1 sequence (looked up): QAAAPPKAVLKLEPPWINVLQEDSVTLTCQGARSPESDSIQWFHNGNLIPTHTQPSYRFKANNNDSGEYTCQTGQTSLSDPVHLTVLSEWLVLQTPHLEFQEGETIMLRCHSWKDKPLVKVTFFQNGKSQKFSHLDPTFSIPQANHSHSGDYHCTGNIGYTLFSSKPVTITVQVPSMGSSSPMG

T2: FcγRIIb, extracellular domain with C-terminal His tag (human, UniProt P31994 43-217)
T2 construct: extracellular domain; Soluble receptor expressed in FreeStyle293 cells; analyte in Biacore; also called FcgRIIb; 2b; not shown: C-terminal His tag
T2 sequence (looked up): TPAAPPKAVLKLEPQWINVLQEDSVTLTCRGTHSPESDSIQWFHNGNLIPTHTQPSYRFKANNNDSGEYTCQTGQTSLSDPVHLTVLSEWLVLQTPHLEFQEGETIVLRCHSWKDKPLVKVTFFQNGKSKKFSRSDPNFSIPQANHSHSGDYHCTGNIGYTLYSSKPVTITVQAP

T3: FcγRIIb (human, UniProt P31994 43-217)
T3 construct: extracellular domain; Soluble extracellular domain with C-terminal His tag, used as analyte in Biacore; also called FcgRIIb; 2b; not shown: His tag attached to the C terminus
T3 sequence (looked up): T2 sequence (looked up)

B1: GpH7-A5/GpH7-B3 variant S298_20W/GpL16-k0 (antibody, human IgG1, kappa)
heavy 1: not shown
heavy 2: not shown
light: DIVMTQSPLSLPVTPGEPASISCQASESLVHSNRNTYLHWYLQKPGQSPQLLIYKVSNRFSGVPDRFSGSGSGTDFTLKISRVEAEDVGVYYCSQNTHVPPTFGQGTKVEIERTVAAPSVFIFPPSDEQLKSGTASVVCLLNNFYPREAKVQWKVDNALQSGNSQESVTEQDSKDSTYSLSSTLTLSKADYEKHKVYACEVTHQGLSSPVTKSFNRGEC
notes: Heterodimerized IgG1; mutation only in the GpH7-B3 chain; also called He Ab
B2: GpH7-A5/GpH7-B3 variant Y300_01G/GpL16-k0 (antibody, human IgG1, kappa)
heavy 1: not shown
heavy 2: not shown
light: B1 light
notes: as for B1
B3: GpH7-A5/GpH7-B3 variant Y300_02A/GpL16-k0 (antibody, human IgG1, kappa)
heavy 1: not shown
heavy 2: not shown
light: B1 light
notes: as for B1
B4: GpH7-A5/GpH7-B3 variant Y300_03V/GpL16-k0 (antibody, human IgG1, kappa)
heavy 1: not shown
heavy 2: not shown
light: B1 light
notes: as for B1
B5: GpH7-A5/GpH7-B3 variant Y300_06M/GpL16-k0 (antibody, human IgG1, kappa)
heavy 1: not shown
heavy 2: not shown
light: B1 light
notes: as for B1
B6: GpH7-A5/GpH7-B3 variant Y300_07I/GpL16-k0 (antibody, human IgG1, kappa)
heavy 1: not shown
heavy 2: not shown
light: B1 light
notes: as for B1
B7: GpH7-A5/GpH7-B3 variant Y300_08L/GpL16-k0 (antibody, human IgG1, kappa)
heavy 1: not shown
heavy 2: not shown
light: B1 light
notes: as for B1
B8: GpH7-A5/GpH7-B3 variant Y300_11K/GpL16-k0 (antibody, human IgG1, kappa)
heavy 1: not shown
heavy 2: not shown
light: B1 light
notes: as for B1
B9: GpH7-A5/GpH7-B3 variant A327_01G/GpL16-k0 (antibody, human IgG1, kappa)
heavy 1: not shown
heavy 2: not shown
light: B1 light
notes: Heterodimerized IgG1; mutation in the GpH7-B3 H chain only; also called He Ab
B10: GpH7-A5/GpH7-B3 variant G236_10E/GpL16-k0 (antibody, human IgG1, kappa)
heavy 1: not shown
heavy 2: not shown
light: B1 light
notes: as for B9
B11: GpH7-A5/GpH7-B3 variant G237_13S/GpL16-k0 (antibody, human IgG1, kappa)
heavy 1: not shown
heavy 2: not shown
light: B1 light
notes: as for B9
B12: GpH7-A5/GpH7-B3 variant L234_20W/GpL16-k0 (antibody, human IgG1, kappa)
heavy 1: not shown
heavy 2: not shown
light: B1 light
notes: as for B9
B13: GpH7-A5/GpH7-B3 variant L235_04F/GpL16-k0 (antibody, human IgG1, kappa)
heavy 1: not shown
heavy 2: not shown
light: B1 light
notes: as for B9
B14: GpH7-A5/GpH7-B3 variant N325_01G/GpL16-k0 (antibody, human IgG1, kappa)
heavy 1: not shown
heavy 2: not shown
light: B1 light
notes: as for B9
B15: GpH7-A5/GpH7-B3 variant N325_03V/GpL16-k0 (antibody, human IgG1, kappa)
heavy 1: not shown
heavy 2: not shown
light: B1 light
notes: as for B9
B16: GpH7-A5/GpH7-B3 variant N325_04F/GpL16-k0 (antibody, human IgG1, kappa)
heavy 1: not shown
heavy 2: not shown
light: B1 light
notes: as for B9
B17: GpH7-A5/GpH7-B3 variant N325_06M/GpL16-k0 (antibody, human IgG1, kappa)
heavy 1: not shown
heavy 2: not shown
light: B1 light
notes: as for B9
B18: GpH7-A5/GpH7-B3 variant N325_07I/GpL16-k0 (antibody, human IgG1, kappa)
heavy 1: not shown
heavy 2: not shown
light: B1 light
notes: as for B9
B19: GpH7-A5/GpH7-B3 variant N325_08L/GpL16-k0 (antibody, human IgG1, kappa)
heavy 1: not shown
heavy 2: not shown
light: B1 light
notes: as for B9
B20: GpH7-A5/GpH7-B3 variant P238_16H/GpL16-k0 (antibody, human IgG1, kappa)
heavy 1: not shown
heavy 2: not shown
light: B1 light
notes: as for B9

Target: T1, FcγRIIa H (FcγRIIa, type H allotype, …)
Assay: SPR (Biacore), captured antibody, FcγR as analyte

Question: How did the He/Con_2aH turn out when B1 was run?
Answer: 49.9 relative, GpH7-A5/GpH7-B3/GpL16-k0 = 100

Question: With B2 as the binder, how does the He/Con_2aH read?
Answer: 74.4 relative, GpH7-A5/GpH7-B3/GpL16-k0 = 100

Question: Which He/Con_2aH does the source give for B3 here?
Answer: 93.5 relative, GpH7-A5/GpH7-B3/GpL16-k0 = 100

Question: B4 was tested. Which He/Con_2aH did it give?
Answer: 98 relative, GpH7-A5/GpH7-B3/GpL16-k0 = 100

Question: How did the He/Con_2aH turn out when B5 was run?
Answer: 105 relative, GpH7-A5/GpH7-B3/GpL16-k0 = 100

Question: How did the He/Con_2aH turn out when B6 was run?
Answer: 108 relative, GpH7-A5/GpH7-B3/GpL16-k0 = 100

Question: With B7 as the binder, how does the He/Con_2aH read?
Answer: 108 relative, GpH7-A5/GpH7-B3/GpL16-k0 = 100

Question: How did the He/Con_2aH turn out when B8 was run?
Answer: 66.9 relative, GpH7-A5/GpH7-B3/GpL16-k0 = 100

Target: T2, FcγRIIb, extracellular domain with …
Assay: SPR (Biacore), captured antibody, FcγR as analyte

Question: With B1 as the binder, how does the He/Con_2b read?
Answer: 41.1 relative, GpH7-A5/GpH7-B3/GpL16-k0 = 100

Question: Which He/Con_2b does the source give for B2 here?
Answer: 48.4 relative, GpH7-A5/GpH7-B3/GpL16-k0 = 100

Question: With B3 as the binder, how does the He/Con_2b read?
Answer: 69.2 relative, GpH7-A5/GpH7-B3/GpL16-k0 = 100

Question: B4 was tested. Which He/Con_2b did it give?
Answer: 73.9 relative, GpH7-A5/GpH7-B3/GpL16-k0 = 100

Question: With B5 as the binder, how does the He/Con_2b read?
Answer: 84.3 relative, GpH7-A5/GpH7-B3/GpL16-k0 = 100

Question: With B6 as the binder, how does the He/Con_2b read?
Answer: 74.5 relative, GpH7-A5/GpH7-B3/GpL16-k0 = 100

Question: Which He/Con_2b does the source give for B7 here?
Answer: 73.6 relative, GpH7-A5/GpH7-B3/GpL16-k0 = 100

Question: B8 was tested. Which He/Con_2b did it give?
Answer: 51.6 relative, GpH7-A5/GpH7-B3/GpL16-k0 = 100

Target: T1, FcγRIIa H (FcγRIIa, type H allotype, …)
Assay: ratio of He/Con_2aH to He/Con_2b (FcγRIIa H over FcγRIIb), SPR

Question: Which “He_2aH/2b (IIaH/IIb)” value does the source give for B1 here?
Answer: 1.21

Question: With B2 as the binder, how does the “He_2aH/2b (IIaH/IIb)” value read?
Answer: 1.54

Question: With B3 as the binder, how does the “He_2aH/2b (IIaH/IIb)” value read?
Answer: 1.35

Question: With B4 as the binder, how does the “He_2aH/2b (IIaH/IIb)” value read?
Answer: 1.33

Question: Which “He_2aH/2b (IIaH/IIb)” value does the source give for B5 here?
Answer: 1.24

Question: For B6, which “He_2aH/2b (IIaH/IIb)” value is on record?
Answer: 1.45

Question: For B7, which “He_2aH/2b (IIaH/IIb)” value is on record?
Answer: 1.47

Question: Which “He_2aH/2b (IIaH/IIb)” value does the source give for B8 here?
Answer: 1.3

Target: T3, FcγRIIb
Assay: SPR (Biacore), antibody captured on antigen peptide, FcγR as analyte; relative to GpH7-A5/GpH7-B3/GpL16-k0 = 100

Question: How did the He/Con_2b turn out when B9 was run?
Answer: 116 % of control

Question: For B10, which He/Con_2b is on record?
Answer: 110 % of control

Question: How did the He/Con_2b turn out when B11 was run?
Answer: 111 % of control

Question: How did the He/Con_2b turn out when B12 was run?
Answer: 114 % of control

Question: Which He/Con_2b does the source give for B13 here?
Answer: 118 % of control

Question: How did the He/Con_2b turn out when B14 was run?
Answer: 101 % of control

Question: B15 was tested. Which He/Con_2b did it give?
Answer: 111 % of control

Question: With B16 as the binder, how does the He/Con_2b read?
Answer: 143 % of control

Question: Which He/Con_2b does the source give for B17 here?
Answer: 217 % of control

Question: How did the He/Con_2b turn out when B18 was run?
Answer: 171 % of control

Question: For B19, which He/Con_2b is on record?
Answer: 197 % of control

Question: With B20 as the binder, how does the He/Con_2b read?
Answer: 115 % of control

Target: T4, FcγRIa (human, UniProt P12314 16-292)
T4 construct: extracellular domain; Soluble extracellular domain with C-terminal His tag, used as analyte in Biacore; also called FcgRI; 1a; not shown: His tag attached to the C terminus
T4 sequence (P12314 16-292): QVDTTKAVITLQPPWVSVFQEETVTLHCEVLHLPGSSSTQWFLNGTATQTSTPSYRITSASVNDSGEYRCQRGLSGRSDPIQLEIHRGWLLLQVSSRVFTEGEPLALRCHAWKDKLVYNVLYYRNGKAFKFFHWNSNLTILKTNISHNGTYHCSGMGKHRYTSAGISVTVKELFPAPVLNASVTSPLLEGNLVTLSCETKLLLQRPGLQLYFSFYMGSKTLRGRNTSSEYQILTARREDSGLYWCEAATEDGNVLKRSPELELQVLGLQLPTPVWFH
Assay: as above

Question: With B9 as the binder, how does the He/Con_1a read?
Answer: 99 % of control

Question: B10 was tested. Which He/Con_1a did it give?
Answer: 93.7 % of control

Question: Which He/Con_1a does the source give for B11 here?
Answer: 92.2 % of control

Question: B12 was tested. Which He/Con_1a did it give?
Answer: 98.6 % of control

Question: For B13, which He/Con_1a is on record?
Answer: 97.1 % of control

Question: With B14 as the binder, how does the He/Con_1a read?
Answer: 97.1 % of control

Question: How did the He/Con_1a turn out when B15 was run?
Answer: 95.6 % of control

Question: B16 was tested. Which He/Con_1a did it give?
Answer: 93.2 % of control

Question: Which He/Con_1a does the source give for B17 here?
Answer: 97.6 % of control

Question: B18 was tested. Which He/Con_1a did it give?
Answer: 94.8 % of control

Question: Which He/Con_1a does the source give for B19 here?
Answer: 97.5 % of control

Question: B20 was tested. Which He/Con_1a did it give?
Answer: 96 % of control
